The results in this text go back to PMC8421203 (Nucleic Acids Research, 2021).

One may read the Kd as the constant that tells how readily two partners part at equilibrium. A higher Kd goes with lower affinity.

Positions count from the first letter of the chain named.

In series [1] the target is PHF14 PZP domain, 278-487. The series can be described thus: ITC. The conditions noted are these: reference: unmodified H3(1-15) peptide; sites T3.
In series [2] the target is Zebrafish PHF14PZP (278–487) (zebrafish). Nature of the series: ITC. (Isothermal titration calorimetry measures the heat released or taken up as one component is titrated into another.)
Series [3] deals with T1, Zebrafish PHF14PZP (278–487) (zebrafish, UniProt A0A286Y9D1 278-487).
T1 sequence: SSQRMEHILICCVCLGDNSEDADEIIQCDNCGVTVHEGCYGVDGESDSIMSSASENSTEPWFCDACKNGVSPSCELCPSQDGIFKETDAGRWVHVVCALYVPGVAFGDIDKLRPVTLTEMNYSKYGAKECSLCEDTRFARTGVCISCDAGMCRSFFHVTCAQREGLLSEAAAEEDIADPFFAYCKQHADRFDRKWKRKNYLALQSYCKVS
Nature of the series: crystal structure.

The nature of a further series: Thermal shift assay. The series is classed as physicochemical. The conditions noted are these: 2 mg/ml protein, 5× Sypro Orange, 100 mM NaCl, 20 mM HEPES-Na pH 7.5, 25°C to 90°C at 0.5°C per minute.
The target in a further series is T2, PHF14PZP E301A (zebrafish, UniProt A0A286Y9D1 278-487, E301A).
T2 sequence: T1 sequence with E24A
The series can be described thus: ITC.

Regarding “histone H3 1-15 (from UniProt P68431) H3(1-15) T3ph peptide”, the KD result in series [1] is listed as “lost; reference 12.7”.

The molecule “unmodified histone H3(1–15) peptide (from UniProt P68431 2-16)” yielded an equilibrium dissociation constant (Kd) in series [2] of 12.7 µM.

ARTKQTARKSTGG [histone H3(1–13), as joined to PHF14PZP in the fusion protein]: the binding result in series [3] is listed as “binds”.

B1: H3(1–13)-PHF14PZP: chimeric protein: H3(1–13) fused to the N-terminus of PHF14PZP (aa 278–487) through an 'SGSGS' linker (protein)
chain: ARTKQTARKSTGGSGSGSSSQRMEHILICCVCLGDNSEDADEIIQCDNCGVTVHEGCYGVDGESDSIMSSASENSTEPWFCDACKNGVSPSCELCPSQDGIFKETDAGRWVHVVCALYVPGVAFGDIDKLRPVTLTEMNYSKYGAKECSLCEDTRFARTGVCISCDAGMCRSFFHVTCAQREGLLSEAAAEEDIADPFFAYCKQHADRFDRKWKRKNYLALQSYCKVS
modifications: left off: 10xHis-SUMO, N-terminal, cleaved
As to B1, the “positive Tm shift versus free state PHF14PZP” value in the series “Thermal shift assay” is 3.2 °C.

For the molecule ARTKQTARKSTGGKA [unmodified histone H3(1–15) peptide], in the series with PHF14PZP E301A, the “fold decrease of affinity against wild-type PHF14PZP” value was roughly 28 fold.
